Results published in patent US20230287118A1 (published 2023).
Positions count from the first letter of the chain named.

Key:
[1] = biological target: T1, human MCSP (melanoma-associated chondroitin sulfate proteoglycan, chondroitin sulfate proteoglycan 4) (human, UniProt Q6UVK1 30-2322); assay: cell-based or functional assay
[2] = biological target: T1, human MCSP (melanoma-associated …); assay: flow cytometry on MCSP-expressing MV-3 cells
[3] = biological target: T2, human CD3 (human, UniProt P07766 23-207); assay: flow cytometry on Jurkat-NFAT cells
T2 construct: In the assays it is the native CD3 complex on Jurkat or Jurkat-NFAT cells; also called CD3 epsilon

[4] = biological target: T3, human CD20 (human, UniProt P11836 1-297); assay: cell-based or functional assay
T3 sequence (looked up): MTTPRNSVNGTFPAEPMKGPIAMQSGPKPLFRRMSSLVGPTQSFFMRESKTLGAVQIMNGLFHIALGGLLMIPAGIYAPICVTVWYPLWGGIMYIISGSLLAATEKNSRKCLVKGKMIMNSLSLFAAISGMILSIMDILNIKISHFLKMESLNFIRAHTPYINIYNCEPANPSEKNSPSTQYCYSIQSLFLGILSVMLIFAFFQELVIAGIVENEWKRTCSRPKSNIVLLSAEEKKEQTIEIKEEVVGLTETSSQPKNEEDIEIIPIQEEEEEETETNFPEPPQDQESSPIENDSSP

[5] = biological target: T3, human CD20; assay: cell-based or functional assay; remark: listed apart in the source
[6] = biological target: T3, human CD20; assay: cell-based or functional assay; remark: listed apart in the source
[7] = biological target: T3, human CD20; assay: cell-based or functional assay; remark: listed apart in the source
[8] = biological target: T2, human CD3; assay: cell-based or functional assay
[9] = biological target: T2, human CD3; assay: cell-based or functional assay; remark: listed apart in the source
[10] = biological target: human Her3 (human, UniProt P21860 20-1342); assay: cell-based or functional assay

T1 sequence (Q6UVK1 30-2322): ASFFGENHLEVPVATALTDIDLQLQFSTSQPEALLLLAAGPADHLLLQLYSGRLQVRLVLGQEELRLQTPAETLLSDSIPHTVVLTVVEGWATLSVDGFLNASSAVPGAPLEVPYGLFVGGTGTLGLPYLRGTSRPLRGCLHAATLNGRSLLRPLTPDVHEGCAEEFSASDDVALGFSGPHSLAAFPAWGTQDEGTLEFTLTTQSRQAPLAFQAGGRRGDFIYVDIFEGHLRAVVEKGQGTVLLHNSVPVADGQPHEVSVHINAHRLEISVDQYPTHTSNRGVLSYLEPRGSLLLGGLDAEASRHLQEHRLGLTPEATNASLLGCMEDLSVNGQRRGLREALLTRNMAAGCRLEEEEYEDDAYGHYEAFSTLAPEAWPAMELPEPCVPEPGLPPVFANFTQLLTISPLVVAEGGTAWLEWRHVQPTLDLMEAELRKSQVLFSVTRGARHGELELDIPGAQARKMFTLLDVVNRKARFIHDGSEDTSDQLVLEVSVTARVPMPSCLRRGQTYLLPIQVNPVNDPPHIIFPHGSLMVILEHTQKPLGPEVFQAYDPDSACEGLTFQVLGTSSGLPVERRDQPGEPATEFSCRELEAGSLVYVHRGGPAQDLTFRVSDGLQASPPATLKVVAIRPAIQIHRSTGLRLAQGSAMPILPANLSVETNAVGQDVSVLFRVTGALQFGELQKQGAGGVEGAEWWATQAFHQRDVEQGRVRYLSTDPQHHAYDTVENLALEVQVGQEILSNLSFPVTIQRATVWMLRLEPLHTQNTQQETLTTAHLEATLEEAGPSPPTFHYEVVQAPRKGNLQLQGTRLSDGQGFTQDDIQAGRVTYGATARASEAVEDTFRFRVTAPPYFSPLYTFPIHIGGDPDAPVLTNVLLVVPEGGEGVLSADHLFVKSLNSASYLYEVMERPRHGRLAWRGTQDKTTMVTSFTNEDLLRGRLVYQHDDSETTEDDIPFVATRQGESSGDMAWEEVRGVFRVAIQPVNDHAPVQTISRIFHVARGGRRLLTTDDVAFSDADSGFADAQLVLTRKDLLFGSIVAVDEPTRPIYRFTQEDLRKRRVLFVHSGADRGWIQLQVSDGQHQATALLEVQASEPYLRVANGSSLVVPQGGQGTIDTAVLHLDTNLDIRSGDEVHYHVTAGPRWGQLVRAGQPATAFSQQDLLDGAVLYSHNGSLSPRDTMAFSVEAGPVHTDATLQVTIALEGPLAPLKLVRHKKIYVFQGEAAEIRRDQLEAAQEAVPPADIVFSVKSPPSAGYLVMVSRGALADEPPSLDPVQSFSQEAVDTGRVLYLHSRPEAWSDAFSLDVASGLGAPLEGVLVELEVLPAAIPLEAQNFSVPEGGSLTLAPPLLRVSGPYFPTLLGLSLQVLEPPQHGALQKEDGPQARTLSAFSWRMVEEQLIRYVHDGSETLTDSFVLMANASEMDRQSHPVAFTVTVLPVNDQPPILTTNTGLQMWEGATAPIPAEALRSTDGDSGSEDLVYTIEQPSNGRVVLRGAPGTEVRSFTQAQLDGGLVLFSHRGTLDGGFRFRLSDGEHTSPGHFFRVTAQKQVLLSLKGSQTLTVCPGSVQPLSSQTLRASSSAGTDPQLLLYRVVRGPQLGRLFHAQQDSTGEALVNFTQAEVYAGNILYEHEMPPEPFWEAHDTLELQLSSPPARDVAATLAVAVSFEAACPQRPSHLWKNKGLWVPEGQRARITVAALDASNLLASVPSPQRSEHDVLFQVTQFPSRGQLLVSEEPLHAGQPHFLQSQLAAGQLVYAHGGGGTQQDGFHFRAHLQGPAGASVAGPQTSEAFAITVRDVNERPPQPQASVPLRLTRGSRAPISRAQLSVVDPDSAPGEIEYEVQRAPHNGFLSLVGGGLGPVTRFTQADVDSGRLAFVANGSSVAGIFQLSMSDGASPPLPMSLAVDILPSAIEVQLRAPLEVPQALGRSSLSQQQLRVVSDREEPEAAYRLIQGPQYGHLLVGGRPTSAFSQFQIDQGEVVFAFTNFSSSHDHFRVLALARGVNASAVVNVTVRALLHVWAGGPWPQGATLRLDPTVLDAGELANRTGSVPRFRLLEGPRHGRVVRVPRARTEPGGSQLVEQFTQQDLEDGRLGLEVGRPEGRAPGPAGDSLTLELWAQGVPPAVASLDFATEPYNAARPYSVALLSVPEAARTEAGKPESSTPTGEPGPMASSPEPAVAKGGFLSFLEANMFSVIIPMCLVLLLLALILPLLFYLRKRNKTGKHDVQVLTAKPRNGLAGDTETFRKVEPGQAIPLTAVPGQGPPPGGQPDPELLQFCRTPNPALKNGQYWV

B1: anti-MCSP/anti-CD3 "(Fab)2-CrossFab" molecule with charge modifications in the MCSP binders ((Fab)2-XFab-LC007cv) (bispecific antibody)
chain 1: EVQLQESGPGLVKPSQSLSLTCSVTGYSITSGYYWNWIRQFPGNKLEWMGYITYDGSNNYNPSLKNRISITRDTSKNQFFLKLNSVTTEDTATYYCADFDYWGQGTTLTVSSASTKGPSVFPLAPSSKSTSGGTAALGCLVEDYFPEPVTVSWNSGALTSGVHTFPAVLQSSGLYSLSSVVTVPSSSLGTQTYICNVNHKPSNTKVDEKVEPKSCDGGGGSGGGGSEVQLQESGPGLVKPSQSLSLTCSVTGYSITSGYYWNWIRQFPGNKLEWMGYITYDGSNNYNPSLKNRISITRDTSKNQFFLKLNSVTTEDTATYYCADFDYWGQGTTLTVSSASTKGPSVFPLAPSSKSTSGGTAALGCLVEDYFPEPVTVSWNSGALTSGVHTFPAVLQSSGLYSLSSVVTVPSSSLGTQTYICNVNHKPSNTKVDEKVEPKSCDGGGGSGGGGSDIQMTQSPSSLSASVGDRVTITCRASQDIRNYLNWYQQKPGKAPKLLIYYTSRLESGVPSRFSGSGSGTDYTLTISSLQPEDFATYYCQQGNTLPWTFGQGTKVEIKSSASTKGPSVFPLAPSSKSTSGGTAALGCLVKDYFPEPVTVSWNSGALTSGVHTFPAVLQSSGLYSLSSVVTVPSSSLGTQTYICNVNHKPSNTKVDKKVEPKSC
chain 2: EVQLVESGGGLVQPGGSLRLSCAASGYSFTGYTMNWVRQAPGKGLEWVALINPYKGVSTYNQKFKDRFTISVDKSKNTAYLQMNSLRAEDTAVYYCARSGYYGDSDWYFDVWGQGTLVTVSSASVAAPSVFIFPPSDEQLKSGTASVVCLLNNFYPREAKVQWKVDNALQSGNSQESVTEQDSKDSTYSLSSTLTLSKADYEKHKVYACEVTHQGLSSPVTKSFNRGEC
chain 3: DIVLTQSPSSLSASLGDRVTISCSASQGIRNYLNWYQQRPDGTVKLLIYYTSSLHSGVPSRFSGSGSGTDYSLTISNLEPEDIATYYCQQYSKLPWTFGGGTKLEIKRTVAAPSVFIFPPSDRKLKSGTASVVCLLNNFYPREAKVQWKVDNALQSGNSQESVTEQDSKDSTYSLSSTLTLSKADYEKHKVYACEVTHQGLSSPVTKSFNRGEC
notes: The chains are one heavy chain, the anti-MCSP Fab light chain (twice); No Fc domain
- EC50 of tumor cell lysis (LDH release), MV-3 cells + human PBMCs, 24 h [1]: 0.0028 nM
- EC50 of tumor cell lysis (LDH release), MV-3 cells + human PBMCs, 48 h [1]: 0.0086 nM
- EC50 [2]: 2.3 nM
- binding result [3]: binds

B2: anti-CD20/anti-CD3 TCB molecule H: "1+1 CrossMab" with charge modifications (VH/VL exchange in CD3 binder, charge modification in CD20 binder) (bispecific antibody, human IgG1, kappa, N297G)
heavy 1: not shown
heavy 2: QAVVTQEPSLTVSPGGTVTLTCGSSTGAVTTSNYANWVQEKPGQAFRGLIGGTNKRAPGTPARFSGSLLGGKAALTLSGAQPEDEAEYYCALWYSNLWVFGGGTKLTVLSSASTKGPSVFPLAPSSKSTSGGTAALGCLVKDYFPEPVTVSWNSGALTSGVHTFPAVLQSSGLYSLSSVVTVPSSSLGTQTYICNVNHKPSNTKVDKKVEPKSCDKTHTCPPCPAPELLGGPSVFLFPPKPKDTLMISRTPEVTCVVVDVSHEDPEVKFNWYVDGVEVHNAKTKPREEQYGSTYRVVSVLTVLHQDWLNGKEYKCKVSNKALPAPIEKTISKAKGQPREPQVYTLPPCRDELTKNQVSLWCLVKGFYPSDIAVEWESNGQPENNYKTTPPVLDSDGSFFLYSKLTVDKSRWQQGNVFSCSVMHEALHNHYTQKSLSLSP
light 1: DIVMTQTPLSLPVTPGEPASISCRSSKSLLHSNGITYLYWYLQKPGQSPQLLIYQMSNLVSGVPDRFSGSGSGTDFTLKISRVEAEDVGVYYCAQNLELPYTFGGGTKVEIKRTVAAPSVFIFPPSDRKLKSGTASVVCLLNNFYPREAKVQWKVDNALQSGNSQESVTEQDSKDSTYSLSSTLTLSKADYEKHKVYACEVTHQGLSSPVTKSFNRGEC
light 2: EVQLLESGGGLVQPGGSLRLSCAASGFTFSTYAMNWVRQAPGKGLEWVSRIRSKYNNYATYYADSVKGRFTISRDDSKNTLYLQMNSLRAEDTAVYYCVRHGNFGNSYVSWFAYWGQGTLVTVSSASVAAPSVFIFPPSDEQLKSGTASVVCLLNNFYPREAKVQWKVDNALQSGNSQESVTEQDSKDSTYSLSSTLTLSKADYEKHKVYACEVTHQGLSSPVTKSFNRGEC
- EC50 24 h of B cell depletion in normal human whole blood [4]: 3.75 nM
- EC50 24 h of tumor lysis, Ocly-18 cells [5]: 0.25 nM
- EC50 24 h of tumor lysis, SU-DHL-5 cells [5]: 0.0697 nM
- EC50 24 h of tumor lysis, SU-DHL-8 cells [5]: 0.219 nM
- EC50 24 h of tumor lysis, Toledo cells [5]: 0.12 nM
- EC50 24 h of tumor lysis, U2932 cells [5]: 0.0727 nM
- EC50 of tumor cell lysis (LDH release), Z138 cells + human PBMCs, 21-24 h, panel A [6]: 0.0175 nM
- EC50 24 h of CD4 T cell activation, Z138 cells (average of 3 donors) [7]: 0.122 nM
- EC50 24 h of CD8 T cell activation, Z138 cells (average of 3 donors) [7]: 0.175 nM
- EC50 24 h of tumor lysis, Z138 cells (average of 3 donors) [7]: 0.751 nM
- EC50 of CD3 activation, Jurkat-NFAT reporter cells co-cultured with Z138 cells (luminescence, 6 h) [8]: 1 nM

B3: anti-Her3/anti-CD3 "2+1 IgG CrossFab" molecule with charge modifications (Her3 TCB) (bispecific antibody)
chain 1: not shown
chain 2: QVQLVQSGAEVKKPGASVKVSCKASGYTFRSSYISWVRQAPGQGLEWMGWIYAGTGSPSYNQKLQGRVTMTTDTSTSTAYMELRSLRSDDTAVYYCARHRDYYSNSLTYWGQGTLVTVSSASTKGPSVFPLAPSSKSTSGGTAALGCLVEDYFPEPVTVSWNSGALTSGVHTFPAVLQSSGLYSLSSVVTVPSSSLGTQTYICNVNHKPSNTKVDEKVEPKSCDKTHTCPPCPAPEAAGGPSVFLFPPKPKDTLMISRTPEVTCVVVDVSHEDPEVKFNWYVDGVEVHNAKTKPREEQYNSTYRVVSVLTVLHQDWLNGKEYKCKVSNKALGAPIEKTISKAKGQPREPQVCTLPPSRDELTKNQVSLSCAVKGFYPSDIAVEWESNGQPENNYKTTPPVLDSDGSFFLVSKLTVDKSRWQQGNVFSCSVMHEALHNHYTQKSLSLSP
chain 3: not shown
light: B2 light 2
- EC50 of activation of Jurkat-NFAT reporter cells co-cultured with KPL4 cells (luminescence, 5 h) [9]: 0.022 nM
- EC50 of Caspase 3/7 activity (luminescence) in KPL-4-Caspase-3/7 GloSensor target cells + PBMCs, 6.5 h [10]: 0.0007 nM
- EC50 of tumor cell lysis (LDH release), KPL4 cells + human PBMCs, 24 h [10]: 0.00254 nM
- EC50 of tumor cell lysis (LDH release), KPL4 cells + human PBMCs, 48 h [10]: 0.00053 nM

B4: anti-Her2/anti-CD3 "2+1 IgG CrossFab, inverted" molecule with charge modifications (Her2 TCB) (bispecific antibody)
chain 1: not shown
chain 2: not shown
chain 3: not shown
light: B2 light 2
- EC50 of activation of Jurkat-NFAT reporter cells co-cultured with KPL4 cells (luminescence, 5 h) [9]: 0.0344 nM

B5: anti-CD20/anti-CD3 TCB molecule A: "2+1 IgG CrossFab, inverted" without charge modifications (CH1/CL exchange in CD3 binder) (bispecific antibody)
chain 1: not shown
chain 2: QVQLVQSGAEVKKPGSSVKVSCKASGYAFSYSWINWVRQAPGQGLEWMGRIFPGDGDTDYNGKFKGRVTITADKSTSTAYMELSSLRSEDTAVYYCARNVFDGYWLVYWGQGTLVTVSSASTKGPSVFPLAPSSKSTSGGTAALGCLVKDYFPEPVTVSWNSGALTSGVHTFPAVLQSSGLYSLSSVVTVPSSSLGTQTYICNVNHKPSNTKVDKKVEPKSCDKTHTCPPCPAPEAAGGPSVFLFPPKPKDTLMISRTPEVTCVVVDVSHEDPEVKFNWYVDGVEVHNAKTKPREEQYNSTYRVVSVLTVLHQDWLNGKEYKCKVSNKALGAPIEKTISKAKGQPREPQVCTLPPSRDELTKNQVSLSCAVKGFYPSDIAVEWESNGQPENNYKTTPPVLDSDGSFFLVSKLTVDKSRWQQGNVFSCSVMHEALHNHYTQKSLSLSP
chain 3: QAVVTQEPSLTVSPGGTVTLTCGSSTGAVTTSNYANWVQEKPGQAFRGLIGGTNKRAPGTPARFSGSLLGGKAALTLSGAQPEDEAEYYCALWYSNLWVFGGGTKLTVLSSASTKGPSVFPLAPSSKSTSGGTAALGCLVKDYFPEPVTVSWNSGALTSGVHTFPAVLQSSGLYSLSSVVTVPSSSLGTQTYICNVNHKPSNTKVDKKVEPKSC
chain 4: B2 light 1 with R128E, K129Q
- EC50 of tumor cell lysis (LDH release), Z138 cells + human PBMCs, 21-24 h, panel A [6]: 0.00076 nM

B6: anti-CD20/anti-CD3 TCB molecule C: "2+1 IgG CrossFab" with charge modifications (VH/VL exchange in CD3 binder, charge modification in CD20 binders) (bispecific antibody)
heavy 1: not shown
heavy 2: B5 chain 2 with K149E, K215E
light 1: B2 light 1
light 2: B2 light 2
- EC50 of tumor cell lysis (LDH release), Z138 cells + human PBMCs, 21-24 h, panel B [6]: 0.0433 nM
